Fewer inactive variants are shown than the library holds.

B1: TPR 5TU (parent)
chain: GGAUCUUCUCGAUCUAACAAAAAAGACAAAUCUGCCACAAAGCUUGAGAGCAUCUUCGGAUGCAGAGGCGGCAGCCUUCGGUGGCGCGAUAGCGCCAACGUUCUCAACUAUGACACGCAAAACGCGUGCUCCGUUGAAUGGAGUUUAUCAUG

The variants in this data set derive from B1. Briefly: polymerase ribozyme fitness, log enrichment relative to wild type (log ratio); higher = more active; in vitro selection for triplet polymerase activity. A digest of the protocol:
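Genotype fitness is the logarithm of its enrichment divided by wild-type enrichment, using inverse-variance-weighted averages of replicates. That logarithm is base 2. Enrichment was measured by Illumina sequencing of input and output libraries from one triplicate in vitro selection round, with frozen incubation at −7 °C, on PCR-built, transcribed mutant libraries of each subunit of a heterodimeric triplet polymerase ribozyme, retaining genotypes with ≥10 input reads and ≥1 read per output.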
With GGAUCUUCUAGAUCUAACAAAAAAGAGAAAUCUGCCACAAAGCUUAAGAGCAUCUUCGGAUGCAGAGGCGGCAGACUUCGGUGGCGCGAUAGCGCAAACGUUCUCAACUAUGACACGCAAAACGCGUGCUCCGUUGAAUGGAGUUUAUCAUG [C10A C27G G46A C75A C96A], the “polymerase ribozyme fitness (log ratio)” value was at most -4.2.

Take GGAUCUUCUCGUUCUAACAAAAAAGACAAAUCUGCCACAAAGCUUGAGAGCAUCUUCGGAUGCAGAGGCGGCAGCCUUCGGUGACGCGAUAGCGCCAACGUUCUCAACUAUGACACGCAAAACGCGUGCUCCGUUGAAUGGAGUUUAUCAUG [A12U G84A]: the “polymerase ribozyme fitness (log ratio)” value is -1.05. The same measure for GGAUCUUCUCGAUCUAACAAAAAAGACAAAUCUGCCACAAAGCUUGAGAGCAUCUUCGGAUGCAGAGGCGGCAGCCUUCGGUGGCGCGAUAGCGCCAACGUUCUCAGCUAUGACACGCAAAACGCGUGCUCCGUUGAAUUGAGUUUAUCAAG [A107G G140U U151A]: at most -4.2.

Regarding GGAUCUUCUCAAUCUAACAAAAAAGACAAAUCUGCCACAAAGCUUUAGAGCAUCUUCGGAUGCAGAGGCGGCAGCCUUCGGUGGCGCGAUAACGCCAACGUUCUCAACUAUGACACGUAAAACGCGUGCUCCGUUGAAUGGAGUUUAUCAUG [G11A G46U G92A C118U], the “polymerase ribozyme fitness (log ratio)” value was at most -4.2. The same measure for GGAUCUGCUCGAUCGAACAAAAAAGACAAAUCUGCCACAAAGCUUGAGAGCAUCUGCGGAUGCAGAGGCGGCAGCCUUCGGUGGCGCGAUAGAGCCAACGUUCUCAACUAUGACCCGCAAAACGCGUGCGCCGUUGAAUGGAGUUUAUCAUG [U7G U15G U56G C93A A115C U130G]: at most -4.2; for GGAUCUUCCCGAUCUAACAAAAACGACAAAUCUGCCACACAGCUUGAGAGCAUCUUCGGAUGCAGAGGCGGCAGCCUUCGGUGGCGCGAUAGAGCCAACGUUCUGAACUAUGACACGCAAAACGCGUGCUCCGUUGAAUGCAGUUUAUCAUG [U9C A24C A40C C93A C105G G141C]: at most -4.2; for GGAUCUUCUCGAUCUAACAAAAAAGACAAAUCUGCCACAAAGCUUGAGAGCAUCUUCGGAUGCAGAGGCGGCAGCCUUCGGUGGCGCGAUAGUGCCAAUGUUCUCAACUAUGAGACGCAAAACGCGUGCUCCGUUGAAUGGAGUUUAUCAUG [C93U C99U C114G]: -3.73. The same measure for GGAUCUUCUCGAUCUAACAAAAAAGACAAAUCUGCCACAAAGCUUGAGAGCAUCAUCGGAUGCAGAGGCCGCAGCCUUCGGUGGCGCGAUAUCGCCAACGUUCUCAACUAUGACACGCUAAACGCGUGCUCCGUUGAAUGGAGUUUAUCAUG [U55A G70C G92U A119U]: -3.25; for GGAUCUUAUCGAUUUUACAAAAAAGACAAAUCGGCCACAAAGCUUGUGAGCAUCUUAGGAUGCAGAGGCGGCAGCCUUCGGUGGCGCGAUAGAGCCAACGUUCUCAACUAUGACACGCAAAACGCGUGCUCCGUUGAAUGGUGUUUAUCAUG [C8A C14U A16U U33G A47U C57A C93A A142U]: at most -4.2.

For the variant GGAUCUACUCGAUCUAACAAAAAAGGCAAAUCUGCCACAAAGCUUGGGAGCAUCUUCGGAUGCAGUGGCGCCAGCCUUCGGUGGCGCGAUAGCGCCAACGUUCUCAACUAUGACACGCAAAACGCGUGCUUCGUUGAAGGGAGUUUAUCAUG [U7A A26G A47G A66U G71C C131U U139G], the “polymerase ribozyme fitness (log ratio)” value is at most -4.2.

As to GGAUCUUCUCGAUCUAACAAAAAAGAUAAAUCUGCCACAAAACUUGAGAGCAUCUUCGGAUGCAGAUGAGGCAGCCUUCGGUGGCGCGAUAGCGCCAACGUUCUCAACUAUGACACACAAAACGCGUGCUCCGUUGAAUGGAGUUUAUCCUG [C27U G42A G67U C69A G117A A150C], the “polymerase ribozyme fitness (log ratio)” value is at most -4.2.

For the variant GGAUCUUCUCGAUCUAACAAAAAAGACAAAUCUGCCACAAAGCUUGAGAGCGUCUUCGGAUGCAGAGGCAGCAGCCUUCGGUGGCGCGAUAGCGCAAACGUGCUCAACUAUGACACGCAAAACGCGUGGUCCGUUGAAUGGAAUUAAUCAUG [A52G G70A C96A U102G C129G G143A U146A], the “polymerase ribozyme fitness (log ratio)” value was at most -4.2.

GGAUCUUCUCGAUCUAACAACAAAGACAAAUGUGCCACAAAGUUUGAGAGCAUCUUAGGAUGCAGAGGCGUCAGCCUUCGGUGGAGCCAUCGCGCCAACGUUCUCAACUAUGACACGCAAAACGCGUGCUCCGUUGAAUGGAGUUUUUCAUG [A21C C32G C43U C57A G71U C85A G88C A91C A147U]: the “polymerase ribozyme fitness (log ratio)” value was at most -4.2. The same measure for GGAGCUUCUCGAUCGAACAAAAAAGACAAGUCUGCCACAAUGCUUUAGAGCAUCUUCGGAUGCAGAGGGGGCAGCUUUCGGUGGCGCGAUAGGGCCAACGUUCUCAACUAUGACACGCAAAACGCGUGCUCCGUUGAAUGGACUUUAUCAUG [U4G U15G A30G A41U G46U C69G C76U C93G G143C]: at most -4.2.

Regarding GGAUCUUCUCGAUCUAACAAAAAAGACAAAUCUGCCACAAAGCUUGAGAGCAUCUUCGGAUGCAGAGGCGGCAGGCUUCGGUGGCGCGAUAGCGCCAACGUUCUCCAAUAUGACACGCAAAACGCGUGCUCCGUUGAAUGGAGUUUAUCAUG [C75G A106C C108A], the “polymerase ribozyme fitness (log ratio)” value is at most -4.2.

For the variant GGAUCUUCUCGAUCUAACAAAAAAGACAAAUCUGCCACAAAGCUUGAGAGCAUCUUCGGAUGCAGAGGCGGCAGCCUUCGGUGGCGCUAUAGCGCCUACGUGCUCAACUAUGACACUCAAAACGCGUGCUCCGUUGAAGGGAGUUUAUCAUG [G88U A97U U102G G117U U139G], the “polymerase ribozyme fitness (log ratio)” value was at most -4.2. Regarding GGAUCUUCUCGAUCUAACAAAAAAGACAAAUCUGCCACAAAGCUUGAGAGCAUCUUCGGAUGCAGAGGCGGCAGGCUUCGGUGGCGCGAUAGCGCUAACGUUCUCAACUAUGACACGCAAAACGCGUGCUCCGUUGAAUGGAGUUUAUCAUG [C75G C96U], the “polymerase ribozyme fitness (log ratio)” value was -3.61. The same measure for GGAUCUUCUCGAUCUAACAAAUCAGACAAAUCUGCCACAAAGCUUGAGAGCAUCUUCGGAUGCAGAGGCGGCAGCCUUCGGUGGCGCGAUAGCGCCAACGUUCUCAACUAUGACACGCAAAACGCGUGCUCCGUUGAAUGGAGUUUAUCAUG [A22U A23C]: -4; for GGAUCUUCUCGAUAUAACAAAAAAGACAAAUCUGCCACAAAGCUUGAGAGCAUCUUCGGAUGCAGAGUCGGCAGCAUUCGGUGGCGCGAUAGCGCCAAUAUUCUCAACUAUGACACGCAAAACGCGUGCUCCGUUGAAUGGAGUUUAUCAUG [C14A G68U C76A C99U G100A]: at most -4.2.

These data come from the RNAGym collection of RNA variant scans (doi:10.1073/pnas.2313332121).
